Measured values published in the supplement of paper PMC9112550, “Optimization of the antimicrobial peptide Bac7 by deep mutational scanning” (BMC Biology, 2022).

Test system: Escherichia coli TOP10
Assay: shrunken log2 fold change of peptide-encoding DNA abundance (4.5 h post-induction vs induction); higher = less antimicrobial activity (less host growth inhibition)
Settings: time post-induction: 4.5 h; library: site-saturation at positions 5, 18, 19, 20
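Further: peptides expressed intracellularly from a pBAD plasmid library in pooled LB shake-flask culture, induced with 0.3% L-arabinose, DNA abundance read by NGS, three biological replicates, DESeq2 with apeglm shrinkage.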

Sequence: RRIRTRPPRLPRPRPRPSNEPRP
- shrunken log2 fold change: -0.34

Sequence: RRIRTRPPRLPRPRPRPFPSPRP
- shrunken log2 fold change: 0.0745

Sequence: RRIRERPPRLPRPRPRPMYKPRP
- shrunken log2 fold change: -0.0299

Sequence: RRIRPRPPRLPRPRPRPSDYPRP
- shrunken log2 fold change: -0.691

Sequence: RRIRQRPPRLPRPRPRPEYQPRP
- shrunken log2 fold change: 0.00438

Sequence: RRIRPRPPRLPRPRPRPWKEPRP
- shrunken log2 fold change: -0.164

Sequence: RRIRTRPPRLPRPRPRPGWMPRP
- shrunken log2 fold change: -0.182

Sequence: RRIRERPPRLPRPRPRPLATPRP
- shrunken log2 fold change: 0.133

Sequence: RRIRYRPPRLPRPRPRPCAVPRP
- shrunken log2 fold change: -0.269

Sequence: RRIRPRPPRLPRPRPRPEQAPRP
- shrunken log2 fold change: 0.0776

Sequence: RRIRRRPPRLPRPRPRPWPCPRP
- shrunken log2 fold change: 0.133

Sequence: RRIRQRPPRLPRPRPRPTYPPRP
- shrunken log2 fold change: 0.0397

Sequence: RRIRERPPRLPRPRPRPNIQPRP
- shrunken log2 fold change: -0.357

Sequence: RRIRLRPPRLPRPRPRPISYPRP
- shrunken log2 fold change: -0.334

Sequence: RRIRGRPPRLPRPRPRPFHVPRP
- shrunken log2 fold change: -0.0412

Sequence: RRIRRRPPRLPRPRPRPGHNPRP
- shrunken log2 fold change: 0.06

Sequence: RRIRMRPPRLPRPRPRPSITPRP
- shrunken log2 fold change: -0.0273

Sequence: RRIRLRPPRLPRPRPRPPLLPRP
- shrunken log2 fold change: 0.158

Sequence: RRIRERPPRLPRPRPRPIWKPRP
- shrunken log2 fold change: -0.644

Sequence: RRIRQRPPRLPRPRPRPTIKPRP
- shrunken log2 fold change: -0.374

Sequence: RRIRYRPPRLPRPRPRPCYPPRP
- shrunken log2 fold change: -0.37

Sequence: RRIRDRPPRLPRPRPRPYQCPRP
- shrunken log2 fold change: -0.00205

Sequence: RRIRGRPPRLPRPRPRPSMKPRP
- shrunken log2 fold change: 0.354

Sequence: RRIRMRPPRLPRPRPRPECPPRP
- shrunken log2 fold change: 0.43

Sequence: RRIRLRPPRLPRPRPRPSYYPRP
- shrunken log2 fold change: -0.963

Sequence: RRIRNRPPRLPRPRPRPFLPPRP
- shrunken log2 fold change: -0.354

Sequence: RRIRFRPPRLPRPRPRPGQMPRP
- shrunken log2 fold change: 0.172

Sequence: RRIRGRPPRLPRPRPRPMYAPRP
- shrunken log2 fold change: 0.706

Sequence: RRIRVRPPRLPRPRPRPAAGPRP
- shrunken log2 fold change: 0.154

Sequence: RRIRARPPRLPRPRPRPLPKPRP
- shrunken log2 fold change: 0.748

Sequence: RRIRYRPPRLPRPRPRPKWLPRP
- shrunken log2 fold change: -0.221

Sequence: RRIRMRPPRLPRPRPRPCLHPRP
- shrunken log2 fold change: -0.608

Sequence: RRIRERPPRLPRPRPRPYWHPRP
- shrunken log2 fold change: -0.168

Sequence: RRIRDRPPRLPRPRPRPQWNPRP
- shrunken log2 fold change: -0.37

Sequence: RRIRYRPPRLPRPRPRPSPRPRP
- shrunken log2 fold change: 0.062

Sequence: RRIRWRPPRLPRPRPRPGLQPRP
- shrunken log2 fold change: 0.0651

Sequence: RRIRMRPPRLPRPRPRPRWEPRP
- shrunken log2 fold change: 0.814

Sequence: RRIRERPPRLPRPRPRPWEAPRP
- shrunken log2 fold change: 0.74

Sequence: RRIRVRPPRLPRPRPRPETYPRP
- shrunken log2 fold change: -0.316

Sequence: RRIRHRPPRLPRPRPRPYNPPRP
- shrunken log2 fold change: -1.07

Sequence: RRIRQRPPRLPRPRPRPPRCPRP
- shrunken log2 fold change: 0.689

Sequence: RRIRNRPPRLPRPRPRPAGSPRP
- shrunken log2 fold change: 0.086

Sequence: RRIRSRPPRLPRPRPRPTYTPRP
- shrunken log2 fold change: -0.24

Sequence: RRIRCRPPRLPRPRPRPLMWPRP
- shrunken log2 fold change: -0.185

Sequence: RRIRQRPPRLPRPRPRPRQTPRP
- shrunken log2 fold change: 0.161

Sequence: RRIRIRPPRLPRPRPRPCNKPRP
- shrunken log2 fold change: -0.47

Sequence: RRIRHRPPRLPRPRPRPMHTPRP
- shrunken log2 fold change: 0.0398

Sequence: RRIRKRPPRLPRPRPRPHHFPRP
- shrunken log2 fold change: -0.0062

Sequence: RRIRPRPPRLPRPRPRPKCMPRP
- shrunken log2 fold change: -0.222

Sequence: RRIRERPPRLPRPRPRPERTPRP
- shrunken log2 fold change: 0.0163

Sequence: RRIRRRPPRLPRPRPRPKAKPRP
- shrunken log2 fold change: 0.0788

Sequence: RRIRPRPPRLPRPRPRPKSEPRP
- shrunken log2 fold change: 0.197

Sequence: RRIRCRPPRLPRPRPRPPMMPRP
- shrunken log2 fold change: -0.0549

Sequence: RRIRIRPPRLPRPRPRPDDCPRP
- shrunken log2 fold change: -0.271

Sequence: RRIRWRPPRLPRPRPRPKTTPRP
- shrunken log2 fold change: -0.0128

Sequence: RRIRNRPPRLPRPRPRPYPPPRP
- shrunken log2 fold change: -0.671

Sequence: RRIRTRPPRLPRPRPRPFCRPRP
- shrunken log2 fold change: -0.0976

Sequence: RRIRIRPPRLPRPRPRPTNAPRP
- shrunken log2 fold change: -0.0508

Sequence: RRIRKRPPRLPRPRPRPSYVPRP
- shrunken log2 fold change: -0.294

Sequence: RRIRQRPPRLPRPRPRPNQCPRP
- shrunken log2 fold change: 0.0304

Sequence: RRIRHRPPRLPRPRPRPRPYPRP
- shrunken log2 fold change: 0.0624

Sequence: RRIRARPPRLPRPRPRPPTKPRP
- shrunken log2 fold change: 0.486

Sequence: RRIRSRPPRLPRPRPRPNCEPRP
- shrunken log2 fold change: -0.133

Sequence: RRIRRRPPRLPRPRPRPQNPPRP
- shrunken log2 fold change: 0.214

Sequence: RRIRDRPPRLPRPRPRPVEEPRP
- shrunken log2 fold change: 0.525

Sequence: RRIRERPPRLPRPRPRPDELPRP
- shrunken log2 fold change: -0.00377

Sequence: RRIRQRPPRLPRPRPRPLGWPRP
- shrunken log2 fold change: 0.8

Sequence: RRIRGRPPRLPRPRPRPKRVPRP
- shrunken log2 fold change: 0.198

Sequence: RRIRWRPPRLPRPRPRPNRWPRP
- shrunken log2 fold change: 0.218

Sequence: RRIRWRPPRLPRPRPRPLHCPRP
- shrunken log2 fold change: -0.444

Sequence: RRIRVRPPRLPRPRPRPFGQPRP
- shrunken log2 fold change: -0.222

Sequence: RRIRMRPPRLPRPRPRPNVKPRP
- shrunken log2 fold change: -0.0702

Sequence: RRIRLRPPRLPRPRPRPCMKPRP
- shrunken log2 fold change: -0.101

Sequence: RRIRERPPRLPRPRPRPPQFPRP
- shrunken log2 fold change: -0.151

Sequence: RRIRHRPPRLPRPRPRPMASPRP
- shrunken log2 fold change: -0.0864

Sequence: RRIRNRPPRLPRPRPRPQPQPRP
- shrunken log2 fold change: -0.0877

Sequence: RRIRCRPPRLPRPRPRPTKEPRP
- shrunken log2 fold change: -0.0808

Sequence: RRIRRRPPRLPRPRPRPHCPPRP
- shrunken log2 fold change: 0.0475

Sequence: RRIRFRPPRLPRPRPRPCWWPRP
- shrunken log2 fold change: 0.696

Sequence: RRIRRRPPRLPRPRPRPKKPPRP
- shrunken log2 fold change: 0.974

Sequence: RRIRARPPRLPRPRPRPNETPRP
- shrunken log2 fold change: 0.0696

Sequence: RRIRDRPPRLPRPRPRPIRNPRP
- shrunken log2 fold change: 0.011

Sequence: RRIRFRPPRLPRPRPRPSAGPRP
- shrunken log2 fold change: 0.192

Sequence: RRIRLRPPRLPRPRPRPWMAPRP
- shrunken log2 fold change: -0.346

Sequence: RRIRARPPRLPRPRPRPQLNPRP
- shrunken log2 fold change: -0.0125

Sequence: RRIRTRPPRLPRPRPRPGTPPRP
- shrunken log2 fold change: 0.0833

Sequence: RRIRIRPPRLPRPRPRPADDPRP
- shrunken log2 fold change: -0.062

Sequence: RRIRWRPPRLPRPRPRPDPFPRP
- shrunken log2 fold change: -0.0639

Sequence: RRIRRRPPRLPRPRPRPTHCPRP
- shrunken log2 fold change: 0.562

Sequence: RRIRGRPPRLPRPRPRPQDWPRP
- shrunken log2 fold change: 0.639

Sequence: RRIRARPPRLPRPRPRPLYCPRP
- shrunken log2 fold change: 0.765

Sequence: RRIRMRPPRLPRPRPRPSNTPRP
- shrunken log2 fold change: -0.0896

Sequence: RRIRFRPPRLPRPRPRPDYAPRP
- shrunken log2 fold change: -1.13

Sequence: RRIRFRPPRLPRPRPRPPTWPRP
- shrunken log2 fold change: 0.239

Sequence: RRIRTRPPRLPRPRPRPYPAPRP
- shrunken log2 fold change: -0.277

Sequence: RRIRSRPPRLPRPRPRPYIRPRP
- shrunken log2 fold change: -0.0533

Sequence: RRIRWRPPRLPRPRPRPCCDPRP
- shrunken log2 fold change: 0.0279

Sequence: RRIRVRPPRLPRPRPRPGKCPRP
- shrunken log2 fold change: 0.0804

Sequence: RRIRYRPPRLPRPRPRPACIPRP
- shrunken log2 fold change: -0.389

Sequence: RRIRLRPPRLPRPRPRPAMLPRP
- shrunken log2 fold change: -0.0377

Sequence: RRIRDRPPRLPRPRPRPDWKPRP
- shrunken log2 fold change: 0.0755

Sequence: RRIRIRPPRLPRPRPRPLFGPRP
- shrunken log2 fold change: -0.102

Sequence: RRIRKRPPRLPRPRPRPEWDPRP
- shrunken log2 fold change: 0.12

Sequence: RRIRTRPPRLPRPRPRPMAYPRP
- shrunken log2 fold change: 0.0358

Sequence: RRIRWRPPRLPRPRPRPFTAPRP
- shrunken log2 fold change: -0.0343

Sequence: RRIRPRPPRLPRPRPRPAYPPRP
- shrunken log2 fold change: 0.0124

Sequence: RRIRKRPPRLPRPRPRPNRMPRP
- shrunken log2 fold change: 0.00972

Sequence: RRIRMRPPRLPRPRPRPVDSPRP
- shrunken log2 fold change: 0.216

Sequence: RRIRNRPPRLPRPRPRPMSPPRP
- shrunken log2 fold change: -0.000685

Sequence: RRIRERPPRLPRPRPRPGPRPRP
- shrunken log2 fold change: 0.537

Sequence: RRIRQRPPRLPRPRPRPDIPPRP
- shrunken log2 fold change: -0.811

Sequence: RRIRWRPPRLPRPRPRPGSLPRP
- shrunken log2 fold change: 0.0223

Sequence: RRIRMRPPRLPRPRPRPIIYPRP
- shrunken log2 fold change: -0.732

Sequence: RRIRIRPPRLPRPRPRPNISPRP
- shrunken log2 fold change: -0.199

Sequence: RRIRNRPPRLPRPRPRPYCDPRP
- shrunken log2 fold change: -0.0156

Sequence: RRIRERPPRLPRPRPRPNTQPRP
- shrunken log2 fold change: -0.187

Sequence: RRIRKRPPRLPRPRPRPHFEPRP
- shrunken log2 fold change: 0.101

Sequence: RRIRYRPPRLPRPRPRPHYVPRP
- shrunken log2 fold change: -0.208

Sequence: RRIRERPPRLPRPRPRPERGPRP
- shrunken log2 fold change: 0.119

Sequence: RRIRVRPPRLPRPRPRPDVMPRP
- shrunken log2 fold change: -0.00879

Sequence: RRIRVRPPRLPRPRPRPFKFPRP
- shrunken log2 fold change: -0.0599

Sequence: RRIRMRPPRLPRPRPRPNALPRP
- shrunken log2 fold change: 0.313

Sequence: RRIRTRPPRLPRPRPRPFMLPRP
- shrunken log2 fold change: -0.706

Sequence: RRIRPRPPRLPRPRPRPGHNPRP
- shrunken log2 fold change: -0.133

Sequence: RRIRFRPPRLPRPRPRPRFIPRP
- shrunken log2 fold change: -0.498
